This note sets out measurements from patent US20250002543A1.

B1: FpL_C4KR amino acid substitution mutant Lys(Arg)7Gln (designed binder)
chain: ETPEEPQEEVTIRVNLIFADGRTQTAEFRGTFEEATAEAYRYADLLARVNGEYTADLEDGGYTINIRFAGHHHHHH
B2: FpL_C4KR amino acid substitution mutant Lys(Arg)29Pro (designed binder)
chain: ETPEEPREEVTIRVNLIFADGRTQTAEFPGTFEEATAEAYRYADLLARVNGEYTADLEDGGYTINIRFAGHHHHHH
B3: FpL_C4KR amino acid substitution mutant Lys(Arg)22Thr (designed binder)
chain: ETPEEPREEVTIRVNLIFADGTTQTAEFRGTFEEATAEAYRYADLLARVNGEYTADLEDGGYTINIRFAGHHHHHH
B4: FpL_C4KR amino acid substitution mutant Lys(Arg)29Ile (designed binder)
chain: ETPEEPREEVTIRVNLIFADGRTQTAEFIGTFEEATAEAYRYADLLARVNGEYTADLEDGGYTINIRFAGHHHHHH
B5: FpL_C4KR amino acid substitution mutant Lys(Arg)29Val (designed binder)
chain: ETPEEPREEVTIRVNLIFADGRTQTAEFVGTFEEATAEAYRYADLLARVNGEYTADLEDGGYTINIRFAGHHHHHH
B6: FpL_C4KR amino acid substitution mutant Lys(Arg)13Val (designed binder)
chain: ETPEEPREEVTIVVNLIFADGRTQTAEFRGTFEEATAEAYRYADLLARVNGEYTADLEDGGYTINIRFAGHHHHHH
B7: FpL_C3 G21R (designed binder)
chain: ETPEEPKEEVTIKVNLIFADRKIQTAEFKGTFEEATAKAYAYANLLAKENGEYTADLEDGGNTINIKFAGHHHHHH
B8: FpL_C3 N62H (designed binder)
chain: ETPEEPKEEVTIKVNLIFADGKIQTAEFKGTFEEATAKAYAYANLLAKENGEYTADLEDGGHTINIKFAGHHHHHH
B9: FpL_C3 N62R (designed binder)
chain: ETPEEPKEEVTIKVNLIFADGKIQTAEFKGTFEEATAKAYAYANLLAKENGEYTADLEDGGRTINIKFAGHHHHHH
B10: FpL_C3 N62W (designed binder)
chain: ETPEEPKEEVTIKVNLIFADGKIQTAEFKGTFEEATAKAYAYANLLAKENGEYTADLEDGGWTINIKFAGHHHHHH
B11: FpL_C3 N62Y (designed binder)
chain: ETPEEPKEEVTIKVNLIFADGKIQTAEFKGTFEEATAKAYAYANLLAKENGEYTADLEDGGYTINIKFAGHHHHHH
B12: FpL_C3 G51V (designed binder)
chain: ETPEEPKEEVTIKVNLIFADGKIQTAEFKGTFEEATAKAYAYANLLAKENVEYTADLEDGGNTINIKFAGHHHHHH
B13: FpL_C3KX 9a (designed binder)
chain: ETPGESAEEVTIRVNLIFADGRRQTAEFIGTFEEATAEAYAYARLLARDYGEFTADLEDGGYTINIRFVGHHHHHH
B14: FpL_C3KX 9b (designed binder)
chain: ETPGESAEEVTIRVNLIFADGRRQTAEFIGTFEEATAEAYAYAHLLARDYGEFTADLEDGGYTINIRFVGHHHHHH
B15: FpL_C3KX 7d (designed binder)
chain: ETPGESAEEVTIRVNLIFADGRIQTAEFIGTFEEATAEAYAYANLLARDYGDFTADLEDGGYTINIRFAGHHHHHH
B16: FpL_C3KX 7d_N50M (designed binder)
chain: ETPGESAEEVTIRVNLIFADGRIQTAEFIGTFEEATAEAYAYANLLARDMGDFTADLEDGGYTINIRFAGHHHHHH
B17: FpL_C3KX 7d_E8R (designed binder)
chain: ETPGESAREVTIRVNLIFADGRIQTAEFIGTFEEATAEAYAYANLLARDYGDFTADLEDGGYTINIRFAGHHHHHH
B18: FpL_C3KX 7d_K38H (designed binder)
chain: ETPGESAEEVTIRVNLIFADGRIQTAEFIGTFEEATAHAYAYANLLARDYGDFTADLEDGGYTINIRFAGHHHHHH
B19: FpL_C3KX 7d_K38L (designed binder)
chain: ETPGESAEEVTIRVNLIFADGRIQTAEFIGTFEEATALAYAYANLLARDYGDFTADLEDGGYTINIRFAGHHHHHH
B20: FpL_C3KX 7d_E52Y (designed binder)
chain: ETPGESAEEVTIRVNLIFADGRIQTAEFIGTFEEATAEAYAYANLLARDYGYFTADLEDGGYTINIRFAGHHHHHH
B21: FpL_C3KX 7d_I23F (designed binder)
chain: ETPGESAEEVTIRVNLIFADGRFQTAEFIGTFEEATAEAYAYANLLARDYGDFTADLEDGGYTINIRFAGHHHHHH
B22: FpL_C3KX 7d_Y53S (designed binder)
chain: ETPGESAEEVTIRVNLIFADGRIQTAEFIGTFEEATAEAYAYANLLARDYGDSTADLEDGGYTINIRFAGHHHHHH
B23: FpL_C3KX 7d_N44H (designed binder)
chain: ETPGESAEEVTIRVNLIFADGRIQTAEFIGTFEEATAEAYAYAHLLARDYGDFTADLEDGGYTINIRFAGHHHHHH
B24: FpL_C3KX 7d_E8G (designed binder)
chain: ETPGESAGEVTIRVNLIFADGRIQTAEFIGTFEEATAEAYAYANLLARDYGDFTADLEDGGYTINIRFAGHHHHHH
B25: FpL_C3KX 7d_K48H (designed binder)
chain: ETPGESAEEVTIRVNLIFADGRIQTAEFIGTFEEATAEAYAYANLLAHDYGDFTADLEDGGYTINIRFAGHHHHHH
B26: FpL_C3KX 7d_P6A (designed binder)
chain: ETPGEAAEEVTIRVNLIFADGRIQTAEFIGTFEEATAEAYAYANLLARDYGDFTADLEDGGYTINIRFAGHHHHHH
B27: FpL_C3KX 7d_I23L (designed binder)
chain: ETPGESAEEVTIRVNLIFADGRLQTAEFIGTFEEATAEAYAYANLLARDYGDFTADLEDGGYTINIRFAGHHHHHH
B28: FpL_C3KX 7d_E33V (designed binder)
chain: ETPGESAEEVTIRVNLIFADGRIQTAEFIGTFVEATAEAYAYANLLARDYGDFTADLEDGGYTINIRFAGHHHHHH
B29: FpL_C3KX 7d_N44R (designed binder)
chain: ETPGESAEEVTIRVNLIFADGRIQTAEFIGTFEEATAEAYAYARLLARDYGDFTADLEDGGYTINIRFAGHHHHHH
B30: FpL_C3KX 7d_G21R (designed binder)
chain: ETPGESAEEVTIRVNLIFADRRIQTAEFIGTFEEATAEAYAYANLLARDYGDFTADLEDGGYTINIRFAGHHHHHH

For one assay, the target named is immunoglobulin immobilized on IgG Sepharose 6 Fast Flow (manufactured by Cytiva). As to the kind of experiment: IgG Sepharose 6 Fast Flow column; linear gradient 0.1 M citrate pH 6.5 to pH 2.2; pH at the peak of the eluted binding protein.
As for B1, the Elution pH was 3 pH. B2: the Elution pH amounted to 3.2 pH.

Take B3: the Elution pH is 3.2 pH. For the molecule B4, the Elution pH was determined as 3.1 pH. For the molecule B5, the Elution pH stood at 3.1 pH. Same read-out and setting: then B6, with 3.1 pH. Same read-out and setting: to B7 belongs 3.4 pH; to B8, 3 pH; to B9, 3 pH. B10 returned an Elution pH of 3 pH. Still for that read-out and setting: then B11, with 3 pH; and B12, with 3.4 pH.

The target in the next assay is human antibody (gamma globulin preparation, manufactured by The Chemo-Sero-Therapeutic Research Institute) (human). As to the kind of experiment: ELISA; human gamma globulin immobilised; acid treatment 50 mM buffer pH 3.2, 25 C, 5 min; elution rate = 1 - remaining binding activity. For orientation: An ELISA detects its analyte on a solid surface through an enzyme-linked reagent.
B13: the Elution rate [%] stood at 70%.

B14 returned an Elution rate [%] of 68%.

The target is the same in another assay. As to the kind of experiment: ELISA; human gamma globulin immobilised; acid treatment 50 mM buffer pH 3.0, 25 C, 15 min; elution rate = 1 - remaining binding activity.
In turn, B15 registered an Elution rate [%] of 78%. B16 returned an Elution rate [%] of 86%. B17 gave an Elution rate [%] of 82%. B18 showed an Elution rate [%] of 86%. Molecule B19 displayed an Elution rate [%] of 88%. Still for that read-out and setting: to B20 belongs 85%; to B21, 81%; to B22, 83%.

Turning to B23, the Elution rate [%] amounted to 82%. Consider B24, for which the Elution rate [%] was found to be 80%. B25 registered an Elution rate [%] of 85%. B26 displayed an Elution rate [%] of 82%. In turn, B27 yielded an Elution rate [%] of 82%. In turn, B28 yielded an Elution rate [%] of 86%.

The molecule B29 returned an Elution rate [%] of 82%.

The molecule B30 showed an Elution rate [%] of 82%.
